Blank lines part the entries; values can stand above or below the substance they belong to.
How the values were obtained:
[1] = target: geranylgeranylated RAC1 (RAC1^GG) (human) (UniProt P63000); assay: not stated
[2] = target: geranylgeranylated RAC1 (RAC1^GG) (human) (UniProt P63000); assay: stopped-flow fluorimetry; kon from kobs against increasing GDI concentrations mixed with 0.2 µM mdGDP-bound RHO GTPase; koff by displacement with excess unlabeled GDP-bound RHO protein; Kd = koff/kon; 25 °C, 30 mM Tris/HCl pH 7.5, 10 mM K2HPO4/KH2PO4 pH 7.5, 5 mM MgCl2, 3 mM DTT
[3] = target: RAC1, RAC3, RHOG and RHOA; assay: as above
[4] = target: RAC1^ΔC10 (C-terminal truncated variant lacking HVR-CAAX) (human) (UniProt P63000); assay: fluorescence polarisation; increasing GDI1 (variants) titrated to 0.2 µM mdGDP-bound RHO protein, 200 µL; 25 °C, 30 mM Tris/HCl pH 7.5, 10 mM K2HPO4/KH2PO4 pH 7.5, 5 mM MgCl2, 3 mM DTT; quadratic binding equation
RHOA (Homo sapiens) = RHOA (Homo sapiens) (UniProt P61586); conditions: cited from earlier work
RHOA (Homo sapiens), sequence (P61586 1-190): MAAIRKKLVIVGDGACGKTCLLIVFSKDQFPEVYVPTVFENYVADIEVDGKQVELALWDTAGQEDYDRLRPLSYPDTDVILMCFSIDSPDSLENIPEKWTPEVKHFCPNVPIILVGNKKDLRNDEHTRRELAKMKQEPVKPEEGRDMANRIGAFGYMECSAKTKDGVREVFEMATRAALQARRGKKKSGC

CDC42 (Homo sapiens) = CDC42 (Homo sapiens) (UniProt P60953); conditions: cited from earlier work
CDC42 (Homo sapiens), sequence (P60953 1-188): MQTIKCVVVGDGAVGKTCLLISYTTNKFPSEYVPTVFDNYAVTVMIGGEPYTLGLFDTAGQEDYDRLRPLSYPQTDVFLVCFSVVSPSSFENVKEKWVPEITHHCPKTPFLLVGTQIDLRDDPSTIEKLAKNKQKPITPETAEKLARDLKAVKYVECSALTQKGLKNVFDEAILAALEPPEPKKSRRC

RAC1 (Homo sapiens) = RAC1 (Homo sapiens) (UniProt P63000); conditions: cited from earlier work
[5] = target: non-isoprenylated RAC1 full-length (RAC1^FL) (human) (UniProt P63000); assay: stopped-flow fluorimetry; association (kobs) at one concentration: 2 µM GDI mixed with 0.2 µM mdGDP-bound RHO GTPase; 25 °C, 30 mM Tris/HCl pH 7.5, 10 mM K2HPO4/KH2PO4 pH 7.5, 5 mM MgCl2, 3 mM DTT
[6] = target: geranylgeranylated RAC1 (RAC1^GG) (human) (UniProt P63000); assay: as above
[7] = target: non-isoprenylated RAC1 full-length (RAC1^FL) (human) (UniProt P63000); assay: stopped-flow fluorimetry; kon from kobs against increasing GDI concentrations mixed with 0.2 µM mdGDP-bound RHO GTPase; koff by displacement with excess unlabeled GDP-bound RHO protein; Kd = koff/kon; 25 °C, 30 mM Tris/HCl pH 7.5, 10 mM K2HPO4/KH2PO4 pH 7.5, 5 mM MgCl2, 3 mM DTT
[8] = target: non-isoprenylated RAC1 full-length (RAC1^FL) (human) (UniProt P63000); assay: fluorescence polarisation; increasing GDI1 (variants) titrated to 0.2 µM mdGDP-bound RHO protein, 200 µL; 25 °C, 30 mM Tris/HCl pH 7.5, 10 mM K2HPO4/KH2PO4 pH 7.5, 5 mM MgCl2, 3 mM DTT; quadratic binding equation

Kd [1]: 180 nM
fold lower Kd than for RAC1^FL [1]: 2.5 to 4.6 fold
fold difference of koff between RAC1^GG and RAC1^FL [2]: 3 fold
fold higher affinity than for RAC1^FL (Kd from koff/kon) [2]: 7 fold
Kd [3]: 900 to 3200 nM
fold lower affinity than for RAC1 [4]: 26 fold
Substance: GDI1 (RHOGDI1), wild type (from UniProt P52565 1-204) (natural protein)

Substance: GDI1 (from UniProt P52565)
Kd (RHOA (Homo sapiens)): 0.005 nM
Kd (CDC42 (Homo sapiens)): 1.6 nM
Kd (RAC1 (Homo sapiens)): 0.4 nM

fold slower association rate than GDI1^WT [5]: < 24 fold
fold slower association rate than GDI1^WT [6]: < 24 fold
fold difference in kon against GDI1 wt [7]: > 100 fold
fold change of Kd against GDI1^WT [8]: 140 fold
Substance: GDI1^ΔC6 (from UniProt P52565 1-198) (domain or fragment)

fold slower association rate than GDI1^WT [5]: < 24 fold
fold slower association rate than GDI1^WT [6]: < 24 fold
fold difference in kon against GDI1 wt [7]: > 100 fold
fold change of Kd against GDI1^WT [8]: 440 fold
Substance: GDI1^ΔN15 (from UniProt P52565 16-204) (domain or fragment)

Source: article PMC8622166
